Paper PMC7846606

Molecular target: PRC2:EZH1 (EZH1, EED, SUZ12, RBAP48, AEBP2 and JARID2) (UniProt Q92800)
Test: SEC-MALS; TSKgel G4000SWxl, 20 mM Tris-HCl pH 7.5, 300 mM NaCl, 1 mM DTT, 0.5 ml/min; complexes at 1.25 mg/ml, 30 μl injected

stoichiometry N: 2
Substance: PRC2:EZH1 (EZH1, EED, SUZ12, RBAP48, AEBP2 and JARID2) (from UniProt Q92800 1-747; Q15022 1-739; O75530 1-441; Q09028 1-425; Q6ZN18 209-503; Q92833 1-1246) (complex)
